According to patent US20110059095A1 (Regeneron, published 2011):
Where no end group is shown, it is not given here. The star is where a group is joined. Biotin = O=C1N[C@H]2[C@H](CS[C@H]2CCCCC(=O)*)N1

Columns and labels:
[1] = target: T1, Peptide A (human PAR-2), unbiotinylated (Human); test: SPR, antibody captured, steady state
T1 construct: also called Peptide A No Biotin
T1 peptide: GTNRSSKGRSLIGKVDGT
Protocol: (§1) Equilibrium dissociation constants (KD values) for antigen binding to selected purified PAR-2 antibodies were determined by surface kinetics using a real-time surface plasmon resonance biosensor assay. Antibody was captured on either a rabbit anti-mouse IgG polyclonal antibody (GE Healthcare, Piscataway, N.J.) surface or a goat anti-human IgG polyclonal antibody (Jackson Immuno Research Lab, West Grove, Pa.) surface created through direct amine chemical coupling to a BIACORE™ CM5 sensor chip to form a captured antibody surface. […] Antigen-antibody binding and dissociation were monitored in real time at room temperature. Kinetic analysis was performed to calculate KD and half-life of antigen/antibody complex dissociation (Table 10). For those antibodies where no T_{1/2} value is shown, steady state analysis was used to calculate the KD value. NB: no binding observed under current experimental conditions. ND: not determined.

full length human PAR-2 = target: T2, full length human PAR-2 (human, UniProt P55085 26-397); test: cell ELISA, 10 ug/ml antibody
T2 construct: overexpressed on HEK293-derived 293/D9 cells; also called 293/D9/hPAR-2rec cells
T2 sequence (P55085 26-397 G138A limits assumed): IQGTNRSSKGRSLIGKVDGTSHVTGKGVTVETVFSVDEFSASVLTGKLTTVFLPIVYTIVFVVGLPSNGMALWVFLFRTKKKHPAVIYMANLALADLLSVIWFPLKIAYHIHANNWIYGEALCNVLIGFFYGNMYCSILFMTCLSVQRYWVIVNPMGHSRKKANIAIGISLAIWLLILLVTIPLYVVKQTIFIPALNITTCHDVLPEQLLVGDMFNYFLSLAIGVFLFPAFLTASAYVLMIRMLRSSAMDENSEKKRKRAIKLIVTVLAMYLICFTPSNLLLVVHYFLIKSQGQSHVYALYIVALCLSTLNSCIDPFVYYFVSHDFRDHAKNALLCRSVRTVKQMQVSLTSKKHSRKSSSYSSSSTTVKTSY
Text: HEK293 cells were transfected with an NF-κB-luciferase-IRES-eGFP reporter plasmid. […] A clonal cell line, named D9, having low background levels of luciferase activity and high levels of eGFP when induced with IL-1β was made by a series of successive sorts of cell populations using flow cytometry. The 293/D9 cell line was then separately transfected with human PAR-2 or mouse PAR-2 to create the stable cell lines 293/D9/h PAR-2rec and 293/D9/m PAR-2rec, respectively.
Binding of anti-PAR-2 antibodies to 293/D9/hPAR-2rec cells was determined by ELISA. 293/D9 and 293/D9/hPAR-2rec cells were plated at a density of 5×10⁴ cells/well in media and incubated overnight at 37° C. and 5% CO₂. Purified antibody was added to the cells to a final concentration of 10 μg/ml and incubated at room temperature for one hour. Cells were then fixed and washed before detection of bound antibodies with HRP conjugated anti-mouse IgG and developed by standard colorimetric response using TMB substrate. Absorbance was read at OD₄₅₀ for 0.1 second.

[2] = target: T3, Peptide A (human PAR-2), C-terminal biotinylated (Human, C-terminal biotin via G4S linker); test: peptide ELISA
T3 construct: also called Peptide A C-Term
Protocol: (§2) Anti-PAR-2 antibodies were tested for their ability to bind to the PAR-2 peptides. Various PAR-2 Peptides (Table 3) were coated onto 96-well plates at a concentration of 2 μg/ml and incubated overnight followed by blocking in a suitable blocking agent for one hour. […] Purified anti-PAR-2 antibodies were added to the plate coated with PAR-2 peptides to a final concentration ranging from 0.2 to 2.0 μg/ml and incubated for one hour at room temperature. Detection of bound antibodies was determined with Horse-Radish Peroxidase (HRP) conjugated anti-mouse or human IgG (Jackson Immuno Research Lab, West Grove, Pa.) and developed by standard colorimetric response using tetramethylbenzidine (TMB) substrate. Absorbance was read at OD₄₅₀ for 0.1 second.

[3] = target: T4, Peptide A (human PAR-2), N-terminal biotinylated (Human, N-terminal biotin via G4S linker); test: peptide ELISA
T4 construct: also called Peptide A N-Term
T4 peptide: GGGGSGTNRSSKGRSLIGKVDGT
Protocol: as §2

[4] = target: T5, Peptide C (human PAR-2), C-terminal biotinylated (Human); test: peptide ELISA
T5 construct: also called Peptide C C-Term
T5 peptide: SLIGKVGGGGS-biotin
Protocol: as §2

[5] = target: T6, Peptide B (human PAR-2), C-terminal biotinylated (Human, not fully specified); test: peptide ELISA
T6 construct: also called Peptide B C-Term
T6 peptide: SLIGKVDGTSHVTGGGGGS-biotin
Protocol: as §2

[6] = target: T1, Peptide A (human PAR-2), unbiotinylated; test: peptide ELISA
Protocol: as §2

[7] = target: T7, Peptide B (human PAR-2), N-terminal biotinylated (Human); test: peptide ELISA
T7 construct: also called Peptide B N-Term
T7 peptide: Biotin-GGGGSSLIGKVDGTSHVTG
Protocol: as §2

[8] = target: T8, Peptide C (human PAR-2), N-terminal biotinylated (Human); test: peptide ELISA
T8 construct: also called Peptide C N-Term
T8 peptide: Biotin-GGGGSSLIGKV
Protocol: as §2

[9] = target: T9, Peptide B (human PAR-2), unbiotinylated (Human); test: peptide ELISA
T9 construct: also called Peptide B No Biotin
T9 peptide: SLIGKVDGTSHVTG
Protocol: as §2

[10] = target: T1, Peptide A (human PAR-2), unbiotinylated; test: SPR, antibody captured
Protocol: as §1

[11] = target: T9, Peptide B (human PAR-2), unbiotinylated; test: SPR, antibody captured
Protocol: as §1

Binder	Kd [1] [nM]	A450 ratio (293/D9/hPAR-2rec to 293/D9 cells) (full length human PAR-2)	OD450 [2] [od]	OD450 [3] [od]	OD450 [4] [od]	OD450 [5] [od]	OD450 [6] [od]	OD450 [7] [od]	OD450 [8] [od]	OD450 [9] [od]	Kd [10] [nM]	T1/2 [10] [min]	Kd [11] [nM]	T1/2 [11] [min]
H1M616N (antibody, V domains shown, chimeric: human variable, mouse constant domains) VH: EVQLVESGGGLAQPGRSLRVSCSASGFNFDDYAMHWVRQAPGKGLEWVSGISWNSGSRGYADSVKGRFTISRDNAKNSLYLQMNSLRAEDTALYYCVKENWAFEYWGQGTLVTVSS VL: DIVMTQTPLSSPVTLGQPASISCRSSHSLVHSDGSTYLSWLQQRPGQPPRLLIYKISNRFSGVPDRFSGSGAGTDFTLKISRVEAEDVGLYYCMQATQFPYTFGQGTKLEIK	144	2.78	1 to 4	1 to 4	0 to 0.09	0 to 0.09	1 to 4	0 to 0.09	0 to 0.09	0 to 0.09	–	–	–	–
H1M612N (antibody, V domains shown, chimeric: human variable, mouse constant domains) VH: EVQLVESGGGLVQPGRSLRLSCAASGFTFDDYAMHWVRQAPGKGLEWVSGITWNSGNMAYADSVKGRFTISRDNAKNSLYLQMNSLRAEDTALYYCAKENWAFDYWGQGTRVIVSS VL: not shown	180	–	1 to 4	1 to 4	0 to 0.09	0 to 0.09	1 to 4	0 to 0.09	0 to 0.09	0 to 0.09	–	–	–	–
H1M619N (antibody, V domains shown, chimeric: human variable, mouse constant domains) VH: EVQLVESGGGLVQAGRSLRLSCAASGFTFDDYAMHWVRQAPGKGLEWVSGISWNSGSRGYADSVKGRFTISRDNAKNSLHLQMYSLRAEDTALYYCAKENWSFDYWGQGTLVTVSS VL: DIVMTQTPLSSPVTLGQPASISCRSSQSLVHSDGNTYLSWLQQRPGQPPRLLIYKISYRFSGVPDRFSGSGAGTDFTLKISRVATEDVGVYYCMQATQLPYTFGQGTKLEIK	164	–	1 to 4	1 to 4	0 to 0.09	0 to 0.09	1 to 4	0 to 0.09	0 to 0.09	0 to 0.09	–	–	–	–
H2M609N (antibody, V domains shown, chimeric: human variable, mouse constant domains) VH: EVQLVESGGGLVQPGRSLRLSCAASGFTFDDYAMHWVRQAPGKGLEWVSGISWNSGSKGFADSVKGRFTISRDNAKNSLYLQMNSLRVEDTALYYCAKENWSFDYWGQGTLVTVSS VL: DIVMTQTPLSSPVTLGQPASISCRSSQSLVHSDGNIYLSWLQQRPGQPPRLLIYKISNRFSGVPDRFSGSGAGTDFTLKISRVEAEDVGIYYCMQASHFPYTFGQGTKLEIK	–	–	1 to 4	1 to 4	0 to 0.09	0 to 0.09	1 to 4	0 to 0.09	0 to 0.09	0 to 0.09	–	–	–	–
H2M614N (antibody, V domains shown, chimeric: human variable, mouse constant domains) VH: EVQLVESGGGLVQPGRSLRLSCAASGFTFDDYAMHWVRQVPGKGLEWVSGITWNSGSIDYADSVKGRFTISRDNAKNSLYLQMNSLRAEDTAFYYCVKEDEAFDYWGQGTLVTVSS VL: not shown	470	–	1 to 4	1 to 4	0 to 0.09	0 to 0.09	0.5 to 0.99	0 to 0.09	0 to 0.09	0 to 0.09	–	–	–	–
H2M611N (antibody, V domains shown, chimeric: human variable, mouse constant domains) VH: EVQLLESGGGLVQPGGSLRLSCAASGFTFSSYAMTWVRQAPGKGLYWVSAISGSGGSAYYADSVKGRFTISRDNSKNTLYLQMNSLRAEDTAVYYCAKEGDSGYDLDYWGRGTLVTVSS VL: DIQMTQSPSSLSASVGDRVTITCRARQGISNYLAWLQQKPGKAPKSLIYAASSLQSGVPSKFSGSGSGTDFTLTISSLQPEDFATYYCQQYKSSPLTFGGGTKVEIK	–	–	1 to 4	1 to 4	0 to 0.09	1 to 4	1 to 4	1 to 4	0 to 0.09	1 to 4	72.8	4.1	1090	1.2
H1M595N (antibody, V domains shown, chimeric: human variable, mouse constant domains) VH: EVQLVESGGGLVQPGGSLRLSCAASGFTFSSYDMHWVRQVTGKGLEWVSVIGTVGDTYYPGSLKGRFTISRENAKNSLYLQMNTLRAGDTAVYYCARTGAAAHSYYYGMDVWGQGTMVTVSS VL: not shown	510	–	1 to 4	1 to 4	–	0 to 0.09	1 to 4	0 to 0.09	0.5 to 0.99	0 to 0.09	–	–	–	–
H1M615N (antibody, V domains shown, chimeric: human variable, mouse constant domains) VH: EVQLVESGGGVVQPGRSLRLSCAASGFTFDDYTMHWVRQVPGKDLKWVSGITWNGGRKAYADSVKGRFTISRDNAKNSLFLQMNSLRAEDTAFYYCAKEDEAFDYWGQGTLVTVSS VL: not shown	162	2.18	1 to 4	1 to 4	0 to 0.09	0 to 0.09	1 to 4	0 to 0.09	0 to 0.09	0 to 0.09	–	–	–	–
H3M620N (antibody, V domains shown, chimeric: human variable, mouse constant domains) VH: EVQLVESGGNVVRPGGSLRLSCAASGFTFDDYGMTWVRQVPGKGLEWVSGINWNGGSTDYADSVKGRFTISRDNAKNSLYLQMNSLRAEDTALYYCARDKGFYGMDVWGQGTTVTVSS VL: DIVMTQSPDSLAVSLGERATINCKSSQNPLYNSNKKKYLAWYQQKPGQPPKLVIYWASTRESGVPDRFSGSGSGTDFTLTITSLQAEDVAVYYCQQYYSTPYTFGQGTKLEIK	–	–	1 to 4	0.5 to 0.99	0 to 0.09	0 to 0.09	1 to 4	0 to 0.09	0 to 0.09	0 to 0.09	–	–	–	–
H1M592N (antibody, V domains shown, chimeric: human variable, mouse constant domains) VH: EVQLVESGGGLVQPGRSLRLSCAASGFTFDDYAMHWVRQAPGKGLEWVSGISWNSGSIGYADSVKGRFTISRDNAKNSLYLQMNSLRAEDTALYYCAKDRFPPYKYNSGGFSDAFEIWGQGTMVTVSS VL: not shown	2100	–	–	1 to 4	–	–	1 to 4	0.5 to 0.99	1 to 4	–	–	–	–	–
H1M613N (antibody, V domains shown, chimeric: human variable, mouse constant domains) VH: EVQLVESGGGLVQPGRSLRLSCAASGFTFDDYAMHWVRQAPGKGLEWVSGISWNSGSIGYADSVKGRFTISRDNAKNSLYLQMNSLRAEDTALYYCAKDRFPPYKYNSGGFSDAFEIWGQGTMVTVSS VL: not shown	2100	–	–	1 to 4	–	–	1 to 4	0.5 to 0.99	1 to 4	–	–	–	–	–
